# From patent publication US20040018957A1, “Crystal structure of a Ras-P13K complex” (priority 2000, published 2004)
# What was measured:
# N-Ras.mant-GMPPNP [1] = target: T1, N-Ras.mant-GMPPNP (Homo sapiens, UniProt P01111); experiment: Fluorescence anisotropy titration of PI3Kγ 144-1102 into N-Ras.mant-GMPPNP; format: binding; settings: fluorescence anisotropy, 20° C., 1 μM N-Ras.mant-GMPPNP
# T1 construct: fluorescence anisotropy of full length, unmodified N-Ras.mant-GMPPNP
# Method: (§1) Mant-nucleotides were synthesised as described previously (Jameson and Eccleston, 1997). N-Ras and H-Ras mutants were loaded with mant-GMPPNP as in (Moore et al., 1993), gel filtered into running buffer (20 mM Tris pH 7.5, 2 mM MgCl2, 1 mM DTT), and frozen at −80° C. The concentration of Ras.mant-GMPPNP was determined by measuring the absorbance of the mant group at […] with ε=5700 M^−1 cm^−1 (Hiratsuka, 1983). For binding assays, the 144-1102 human PI3Kγ was titrated into a 1 μM solution of fill length, unmodified N-Ras.mant-GMPPNP. Data were collected with SLM 8000 S and ISS PC1 spectrofluorimeters, set up in the T-format and L-format, respectively, with prism polarizers. All measurements were taken at 20° C. with a λex of 366 nm. Both emission PMTs were fitted with 399 nm cutoff filters. Five measurements of each data point were obtained and averaged. Data were fitted to the binding equation.
# Target sequence in this assay (P01111 whole entry): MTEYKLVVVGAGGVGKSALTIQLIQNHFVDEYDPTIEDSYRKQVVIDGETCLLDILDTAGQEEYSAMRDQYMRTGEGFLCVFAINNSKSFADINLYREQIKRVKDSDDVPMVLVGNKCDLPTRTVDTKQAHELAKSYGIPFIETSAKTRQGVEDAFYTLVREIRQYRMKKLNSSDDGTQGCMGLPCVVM
# wild type H-Ras = wild type H-Ras (Homo sapiens, UniProt P01112); experiment: Fluorescence anisotropy titration of PI3Kγ with H-Ras; format: binding
# Method: as §1
# N-Ras.mant-GMPPNP [2] = target: T1, N-Ras.mant-GMPPNP; experiment: Stopped flow anisotropy, association and dissociation kinetics; format: binding; settings: 20° C.
# Method: A Hi-Tech MX61 instrument (Hi-Tech, Salisbury) set up in the T-format with prism polarizers was used to collect data at 20° C. The mant group was excited at 366 nm and emission monitored through 399 nm cutoff filters. The association kinetics were followed by rapid mixing of PI3Kγ with 1 μM N-Ras.mant-GMPPNP under pseudo first-order conditions (PI3Kγ in large excess). Specifically, equal proportions of N-Ras and PI3Kγ were mixed to a final Ras concentration of 1 μM and final PI3Kγ concentrations of 5 and 10 μM. The dissociation rate was measured by mixing a solution of 1 μM N-Ras.mant-GMPPNP and 5 μM PI3K with 9 μM N-Ras.GMPPNP. Attempts to determine association rates at higher PI3K concentrations were limited by solubility of the protein. Data were fitted to single exponential curves within the Hi-Tech software.
# Target sequence in this assay (P01111 whole entry): as above
# Target sequence in this assay (P48736 144-1102 partner limits assumed): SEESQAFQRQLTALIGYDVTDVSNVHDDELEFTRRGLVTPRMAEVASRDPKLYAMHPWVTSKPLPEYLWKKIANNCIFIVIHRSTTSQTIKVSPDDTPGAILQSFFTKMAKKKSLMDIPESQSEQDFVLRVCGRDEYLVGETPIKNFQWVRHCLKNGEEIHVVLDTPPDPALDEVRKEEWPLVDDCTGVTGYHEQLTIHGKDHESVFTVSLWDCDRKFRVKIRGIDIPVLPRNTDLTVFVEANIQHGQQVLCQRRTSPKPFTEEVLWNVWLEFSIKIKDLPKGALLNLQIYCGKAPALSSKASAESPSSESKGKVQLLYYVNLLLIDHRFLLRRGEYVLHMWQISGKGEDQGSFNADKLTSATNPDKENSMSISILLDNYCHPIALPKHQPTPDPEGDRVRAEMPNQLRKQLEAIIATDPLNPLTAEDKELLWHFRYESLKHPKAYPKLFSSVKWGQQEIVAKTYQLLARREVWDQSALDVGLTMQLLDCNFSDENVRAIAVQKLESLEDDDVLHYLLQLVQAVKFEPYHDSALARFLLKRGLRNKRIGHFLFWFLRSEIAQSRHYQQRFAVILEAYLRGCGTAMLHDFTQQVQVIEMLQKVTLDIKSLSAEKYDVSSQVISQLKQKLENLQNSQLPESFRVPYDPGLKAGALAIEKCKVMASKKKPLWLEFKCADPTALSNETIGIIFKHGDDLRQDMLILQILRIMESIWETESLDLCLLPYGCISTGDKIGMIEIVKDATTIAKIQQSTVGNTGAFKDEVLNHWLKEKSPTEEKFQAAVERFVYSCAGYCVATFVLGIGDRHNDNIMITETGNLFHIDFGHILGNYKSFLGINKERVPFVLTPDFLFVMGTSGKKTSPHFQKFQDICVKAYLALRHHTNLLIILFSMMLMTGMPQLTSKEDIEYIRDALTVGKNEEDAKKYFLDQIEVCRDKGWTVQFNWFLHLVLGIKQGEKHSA
# N-Ras.GDP = N-Ras.GDP (Homo sapiens, UniProt P01111); experiment: Binding of PI3Kγ constructs to N-Ras.GDP
# PI3K = target: T2, PI3K (Homo sapiens, UniProt P48736); experiment: Steady state and kinetic measurements of mant-ATP and mant-ADP binding; settings: FIG. 2C
# T2 construct: a construct containing residues 144-1102 of the human PI3Kγ with a C-terminal His6 tag; His6 (C); made in house; host or cells: Sf9 insect cells (baculovirus, pVL1393)
# Method: Equilibrium binding of mant-ATP to PI3K was measured in a SLM 8000 S spectrofluorimeter with λex=280 nm and […]. This allowed monitoring of energy transfer from tryptophan in the PI3K to mant-ATP. Mant-ATP was titrated into a 1 μM solution of PI3K in running buffer. Each data point represents the average of data collected for 30 seconds with a 1 second integration time. For data collected in the presence of Ras, the solution also contained 6 μM H-ras.GMPPNP. The data were fitted to the binding equation with Kaleidagraph.
# All kinetic data were collected in a Hi-Tech Na61 instrument set up in the single push mode with λex=280 nm and emission monitored with 399 nm cutoff filters. A solution of PI3K was mixed a solution of mant-ATP such that the final PI3K concentration was 1 μM and the ATP concentrations were 2.5, 5. 7.5, 10, 12.5, and 25 μM. The displacement experiment was carried out by mixing 1 μM PI3K and 2 μM mant-ATP with 50 or 200 μM ATP. Curve fits were carried out with the Hi-Tech software and Kaleidagraph. Equilibrium and kinetic data for mant-ADP were collected by the same methods.
# wild type H-Ras, sequence (P01112 whole entry): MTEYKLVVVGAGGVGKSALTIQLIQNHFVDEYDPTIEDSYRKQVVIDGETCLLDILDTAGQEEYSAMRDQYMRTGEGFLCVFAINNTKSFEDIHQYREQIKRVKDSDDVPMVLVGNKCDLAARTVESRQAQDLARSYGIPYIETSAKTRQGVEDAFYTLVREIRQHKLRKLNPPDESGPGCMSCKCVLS
# wild type H-Ras, sequence (P48736 144-1102 partner limits assumed): as the sequence (P48736 144-1102 partner limits assumed) above
# T2 sequence (P48736 144-1102): as the sequence (P48736 144-1102 partner limits assumed) above
# N-Ras.GDP, sequence (P01111 whole entry): as the sequence (P01111 whole entry) above
Substance,Kd (N-Ras.mant-GMPPNP [1]),Kd (wild type H-Ras),observed rate constant of the Ras.PI3K complex (single-exponential fit) (N-Ras.mant-GMPPNP [2]),binding to N-Ras.GDP (N-Ras.GDP),nucleotide release from PI3Kγ (PI3K)
wild type PI3Kγ: residues 144-1102 of human PI3Kγ with a C-terminal His6 tag,2800 ± 400 nM,3200 ± 500 nM,18 s⁻¹,"Neither the wild-type protein, the pseudo wild-type (V327A, see methods), nor the V223K mutant exhibit detectable binding",
mant-ADP,,,,,slower than mant-ATP release
